Reference: the supplement of paper PMC9112550, “Optimization of the antimicrobial peptide Bac7 by deep mutational scanning” (BMC Biology, 2022)

tested on: Escherichia coli TOP10; experiment: shrunken log2 fold change of peptide-encoding DNA abundance (4.5 h post-induction vs induction); higher = less antimicrobial activity (less host growth inhibition); settings: time post-induction: 4.5 h; library: site-saturation at positions 5, 18, 19, 20
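Also: peptides expressed intracellularly from a pBAD plasmid library in pooled LB shake-flask culture, induced with 0.3% L-arabinose, DNA abundance read by NGS, three biological replicates, DESeq2 with apeglm shrinkage.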

| Sequence | shrunken log2 fold change |
| --- | --- |
| RRIRCRPPRLPRPRPRPQFGPRP | -0.233 |
| RRIRMRPPRLPRPRPRPKKWPRP | 0.962 |
| RRIRSRPPRLPRPRPRPDRVPRP | -0.144 |
| RRIRNRPPRLPRPRPRPTVFPRP | 0.0462 |
| RRIRQRPPRLPRPRPRPRQGPRP | 0.0279 |
| RRIRHRPPRLPRPRPRPTEHPRP | -0.243 |
| RRIRFRPPRLPRPRPRPMCRPRP | -0.218 |
| RRIRPRPPRLPRPRPRPFIYPRP | -0.0739 |
| RRIRERPPRLPRPRPRPWPEPRP | -0.0215 |
| RRIRMRPPRLPRPRPRPANRPRP | 0.21 |
| RRIRSRPPRLPRPRPRPTSGPRP | 0.194 |
| RRIRLRPPRLPRPRPRPKQQPRP | -0.134 |
| RRIRVRPPRLPRPRPRPNKGPRP | -0.47 |
| RRIRQRPPRLPRPRPRPNKNPRP | -0.335 |
| RRIRDRPPRLPRPRPRPQKKPRP | -0.0848 |
| RRIRYRPPRLPRPRPRPVWPPRP | 9.23e-05 |
| RRIRYRPPRLPRPRPRPIWMPRP | -0.0399 |
| RRIRVRPPRLPRPRPRPIFIPRP | -0.328 |
| RRIRRRPPRLPRPRPRPYWDPRP | -0.247 |
| RRIRERPPRLPRPRPRPPSKPRP | -0.197 |
| RRIRCRPPRLPRPRPRPKGVPRP | 0.595 |
| RRIRSRPPRLPRPRPRPTDGPRP | -0.115 |
| RRIRKRPPRLPRPRPRPAGWPRP | 0.893 |
| RRIRKRPPRLPRPRPRPLRAPRP | 1.23 |
| RRIRRRPPRLPRPRPRPWIHPRP | -0.147 |

| Sequence | shrunken log2 fold change |
| --- | --- |
| RRIRNRPPRLPRPRPRPEFNPRP | -0.0322 |
| RRIRWRPPRLPRPRPRPHRIPRP | -0.225 |
| RRIRPRPPRLPRPRPRPGSWPRP | 0.941 |
| RRIRQRPPRLPRPRPRPRPIPRP | 0.385 |
| RRIRWRPPRLPRPRPRPATKPRP | 0.273 |
| RRIRSRPPRLPRPRPRPCTKPRP | -0.581 |
| RRIRNRPPRLPRPRPRPVLAPRP | 0.093 |
| RRIRWRPPRLPRPRPRPEGRPRP | 0.65 |
| RRIRKRPPRLPRPRPRPTDKPRP | 0.208 |
| RRIRARPPRLPRPRPRPWWFPRP | 0.049 |
| RRIRDRPPRLPRPRPRPDSFPRP | -0.00691 |
| RRIRNRPPRLPRPRPRPEYYPRP | -0.0216 |
| RRIRTRPPRLPRPRPRPNPPPRP | 0.199 |
| RRIRNRPPRLPRPRPRPTNMPRP | -0.753 |
| RRIRNRPPRLPRPRPRPMWAPRP | -0.0203 |
| RRIRMRPPRLPRPRPRPCRRPRP | 0.0172 |
| RRIRIRPPRLPRPRPRPIAFPRP | -0.0789 |
| RRIRIRPPRLPRPRPRPPNYPRP | -0.923 |
| RRIRFRPPRLPRPRPRPMGAPRP | -0.0556 |
| RRIRFRPPRLPRPRPRPGQHPRP | 0.176 |
| RRIRKRPPRLPRPRPRPTEMPRP | 0.25 |
| RRIRIRPPRLPRPRPRPISIPRP | 0.0772 |
| RRIRQRPPRLPRPRPRPEMDPRP | 0.231 |
| RRIRYRPPRLPRPRPRPRVYPRP | -0.847 |
| RRIRHRPPRLPRPRPRPWWEPRP | -0.015 |

| Sequence | shrunken log2 fold change |
| --- | --- |
| RRIRCRPPRLPRPRPRPVLNPRP | -0.396 |
| RRIRQRPPRLPRPRPRPCNAPRP | 0.0357 |
| RRIRDRPPRLPRPRPRPGEIPRP | 0.501 |
| RRIRERPPRLPRPRPRPTYSPRP | -0.578 |
| RRIRLRPPRLPRPRPRPTMWPRP | 0.145 |
| RRIRLRPPRLPRPRPRPEYVPRP | 0.102 |
| RRIRFRPPRLPRPRPRPMMGPRP | -0.0671 |
| RRIRCRPPRLPRPRPRPSNNPRP | -0.707 |
| RRIRPRPPRLPRPRPRPGSVPRP | 0.0512 |
| RRIRERPPRLPRPRPRPFDCPRP | -0.0657 |
| RRIRQRPPRLPRPRPRPSTHPRP | -0.465 |
| RRIRFRPPRLPRPRPRPKTEPRP | 0.0656 |
| RRIRNRPPRLPRPRPRPDTQPRP | -0.149 |
| RRIRKRPPRLPRPRPRPADCPRP | 0.117 |
| RRIRHRPPRLPRPRPRPMRYPRP | -0.0889 |
| RRIRQRPPRLPRPRPRPNVQPRP | 0.031 |
| RRIRFRPPRLPRPRPRPMNNPRP | -0.501 |
| RRIRWRPPRLPRPRPRPQDPPRP | 0.0126 |
| RRIRKRPPRLPRPRPRPGPVPRP | 0.531 |
| RRIRHRPPRLPRPRPRPMGWPRP | 0.317 |
| RRIRTRPPRLPRPRPRPNLMPRP | -0.164 |
| RRIRPRPPRLPRPRPRPIVRPRP | 0.029 |
| RRIRARPPRLPRPRPRPERDPRP | 0.613 |
| RRIRTRPPRLPRPRPRPLIYPRP | -0.174 |
| RRIRERPPRLPRPRPRPWNMPRP | -0.0894 |

| Sequence | shrunken log2 fold change |
| --- | --- |
| RRIRGRPPRLPRPRPRPPEEPRP | 1.5 |
| RRIRRRPPRLPRPRPRPKFKPRP | -0.046 |
| RRIRARPPRLPRPRPRPMFRPRP | -0.217 |
| RRIRTRPPRLPRPRPRPTVFPRP | -0.14 |
| RRIRERPPRLPRPRPRPKRCPRP | -0.0369 |
| RRIRQRPPRLPRPRPRPRLCPRP | 0.423 |
| RRIRQRPPRLPRPRPRPQFIPRP | -0.0627 |
| RRIRARPPRLPRPRPRPYLIPRP | -0.659 |
| RRIRWRPPRLPRPRPRPEFFPRP | 0.54 |
| RRIRYRPPRLPRPRPRPVMYPRP | -0.134 |
| RRIRCRPPRLPRPRPRPYKHPRP | -1.04 |
| RRIRPRPPRLPRPRPRPWDKPRP | -0.629 |
| RRIRYRPPRLPRPRPRPINHPRP | -0.675 |
| RRIRSRPPRLPRPRPRPHPMPRP | -0.236 |
| RRIRNRPPRLPRPRPRPYRNPRP | -0.0239 |
| RRIRTRPPRLPRPRPRPGPGPRP | 0.484 |
| RRIRARPPRLPRPRPRPQCHPRP | 0.441 |
| RRIRPRPPRLPRPRPRPAWNPRP | 0.396 |
| RRIRLRPPRLPRPRPRPMPGPRP | 0.437 |
| RRIRGRPPRLPRPRPRPKRHPRP | 1 |
| RRIRSRPPRLPRPRPRPTTVPRP | 0.14 |
| RRIRGRPPRLPRPRPRPRSVPRP | 0.662 |
| RRIRWRPPRLPRPRPRPTPSPRP | 0.564 |
| RRIRNRPPRLPRPRPRPGNGPRP | -0.462 |
| RRIRHRPPRLPRPRPRPLPNPRP | -0.156 |

| Sequence | shrunken log2 fold change |
| --- | --- |
| RRIRQRPPRLPRPRPRPRNNPRP | -0.173 |
| RRIRYRPPRLPRPRPRPGVGPRP | -0.103 |
| RRIRPRPPRLPRPRPRPYQMPRP | -0.722 |
| RRIRVRPPRLPRPRPRPTIEPRP | 0.061 |
| RRIRFRPPRLPRPRPRPDPLPRP | 0.165 |
| RRIRARPPRLPRPRPRPPQQPRP | 0.758 |
| RRIRVRPPRLPRPRPRPDSCPRP | -0.115 |
| RRIRKRPPRLPRPRPRPQHQPRP | 0.122 |
| RRIRMRPPRLPRPRPRPLCYPRP | -0.0697 |
| RRIRWRPPRLPRPRPRPDHWPRP | 0.109 |
| RRIRGRPPRLPRPRPRPQVEPRP | -0.0312 |
| RRIRNRPPRLPRPRPRPKPHPRP | 0.174 |
| RRIRCRPPRLPRPRPRPTIEPRP | -0.276 |
| RRIRCRPPRLPRPRPRPMAPPRP | 0.219 |
| RRIRLRPPRLPRPRPRPCLHPRP | -0.113 |
| RRIRERPPRLPRPRPRPWMAPRP | -0.0227 |
| RRIRTRPPRLPRPRPRPLKKPRP | -0.0468 |
| RRIRLRPPRLPRPRPRPKIAPRP | -0.203 |
| RRIRSRPPRLPRPRPRPLPSPRP | 0.255 |
| RRIRHRPPRLPRPRPRPVKIPRP | -0.0352 |
| RRIRPRPPRLPRPRPRPFVTPRP | -0.102 |
| RRIRSRPPRLPRPRPRPFSPPRP | -0.195 |
| RRIRQRPPRLPRPRPRPNVAPRP | 0.236 |
| RRIRVRPPRLPRPRPRPQMYPRP | -0.436 |
| RRIRYRPPRLPRPRPRPYCIPRP | -1.32 |

| Sequence | shrunken log2 fold change |
| --- | --- |
| RRIRYRPPRLPRPRPRPDLPPRP | -0.0756 |
| RRIRCRPPRLPRPRPRPYPHPRP | -0.438 |
| RRIRQRPPRLPRPRPRPRYAPRP | 0.0355 |
| RRIRKRPPRLPRPRPRPYKWPRP | 0.000411 |
| RRIRERPPRLPRPRPRPGTPPRP | 0.0316 |
| RRIRARPPRLPRPRPRPWWQPRP | 0.00618 |
| RRIRHRPPRLPRPRPRPWVYPRP | -0.125 |
| RRIRHRPPRLPRPRPRPTLVPRP | -0.233 |
| RRIRFRPPRLPRPRPRPPYQPRP | -0.125 |
| RRIRERPPRLPRPRPRPPTMPRP | -0.151 |
| RRIRWRPPRLPRPRPRPTVEPRP | 0.0565 |
| RRIRVRPPRLPRPRPRPHRHPRP | -0.357 |
| RRIRPRPPRLPRPRPRPPCAPRP | 0.925 |
| RRIRYRPPRLPRPRPRPPLWPRP | 0.277 |
| RRIRSRPPRLPRPRPRPITVPRP | -0.132 |
| RRIRMRPPRLPRPRPRPWTQPRP | -0.0562 |
| RRIRCRPPRLPRPRPRPMANPRP | 0.0226 |
| RRIRIRPPRLPRPRPRPDNHPRP | -0.0565 |
| RRIRWRPPRLPRPRPRPLTSPRP | -0.101 |
| RRIRPRPPRLPRPRPRPCCEPRP | -0.116 |
| RRIRNRPPRLPRPRPRPRITPRP | 0.0468 |
| RRIRLRPPRLPRPRPRPRPIPRP | 0.384 |
| RRIRMRPPRLPRPRPRPYTGPRP | 0.042 |
| RRIRMRPPRLPRPRPRPQAYPRP | -0.0933 |
| RRIRQRPPRLPRPRPRPVCVPRP | 0.18 |
